Measured values: US20200138864A1 (CRAGE MEDICAL, published 2020)

Columns and labels:
[1] = biological target: T1, reference peptide RMFS1 complexed with HLA on T2 cells (T2/RMFS1); experiment: flow cytometry on T2/RMFS1 cells
T1 construct: whole, on cells

[2] = biological target: T2, reference peptide RMFS2 complexed with HLA on T2 cells (T2/RMFS2); experiment: flow cytometry on T2/RMFS2 cells
T2 construct: whole, on cells

[3] = biological target: T3, RMF/HLA.A0201 complex (WT1 peptide RMF complexed with recombinant HLA.A0201-BSP and human β2m) (human, labeled with a biotinylation kit (BirA) on the BSP); experiment: SPR (Biacore T200), 1:1 Langmuir fit
T3 construct: also called RMF/HLA complex; WT1 peptide (RMF) complexed with HLA; not shown: biotin protein ligase BirA substrate peptide (BSP)

[4] = biological target: T3, RMF/HLA.A0201 complex (WT1 peptide RMF …); experiment: ELISA with 2.5, 0.5 and 0.2 ug/ml RMF/HLA complex, scFv clone

Binder	Kd [3] [nM]	binding result [4]	also measured
antigen binding unit 2 (ABU2) (scFv, also called parent ABU2; parental ABU2) scFv: GVQLVESGAEVKKPGASVKVSCKASGYTFTELSMHWVRQAPGKGLEWMGLVDPEDGETIYAEKFQGRVTITADTSTDTAYMELSSLRSEDTAVYYCATDLAAGTNDYWGKGTLVTVSSGGGGSGGGGSGGGGSQAVVTQEPSVTVSPGGTVTLTCGSDTGAVTSGHYPYWFQQKPGQAPRTLIYDTSNKHSWTPARFSGSLLGGKAALTLSGAQPDDEADYYCLLSYSGEWVFGGGTKVTVL			binding result [1]: no binding; binding result [2]: no binding
ABU2 (ScFv_Fc) (Fc fusion, not shown: a dimerising Fc or GST, The format is printed only on the sheet; also called parent ABU2 as scFv-Fc) scFv: GVQLVESGAEVKKPGASVKVSCKASGYTFTELSMHWVRQAPGKGLEWMGLVDPEDGETIYAEKFQGRVTITADTSTDTAYMELSSLRSEDTAVYYCATDLAAGTNDYWGKGTLVTVSSGGGGSGGGGSGGGGSQAVVTQEPSVTVSPGGTVTLTCGSDTGAVTSGHYPYWFQQKPGQAPRTLIYDTSNKHSWTPARFSGSLLGGKAALTLSGAQPDDEADYYCLLSYSGEWVFGGGTKVTVL	1.47		
ABU3 (ScFv_Fc) (Fc fusion, not shown: a dimerising Fc or GST, The format is printed only on the sheet) scFv: GVQLVESGAEVKKPGASVKVSCKASGYTFTELSMHWVRQAPGKGLEWMGLVDPEDGETIYAEKFQGRVTITADTSTDTAYMELSSLRSEDTAVYYCATDLAAGTNDYWGKGTLVTVSSGGGGSGGGGSGGGGSQAVVTQEPSVTVSPGGTVTLTCGSDSGPVTRGHYPYWFQQKPGQAPRTLIDDTSRKHSWTPARFSGSLLGGKAALTLSGAQPDDEADYYCLLSYSGEWVFGGGTKVTVL	0.0467		
ABU5 (scFv) scFv: GVQLVESGAEVKKPGASVKVSCKASGYTFTELSMHWVRQAPGKGLEWMGLVVPDDGETIYAEKFQGRVTITADTSTDTAYMELSSLRSEDTAVYYCATDLAAGTNDYWGKGTLVTVSSGGGGSGGGGSGGGGSQAVVTQEPSVTVSPGGTVTLTCGSDTGAVTSGHYPYWFQQKPGQAPRTLIYDTSNKHSWTPARFSGSLLGGKAALTLSGAQPDDEADYYCLLSYSGEWVFGGGTKVTVL		binds	
ABU4 (scFv) scFv: GVQLVESGAEVKKPGASVKVSCKASGYTFTELSMHWVRQAPGKGLEWMGLVVPADGETIYAEKFQGRVTITADTSTDTAYMELSSLRSEDTAVYYCATDLAAGTNDYWGKGTLVTVSSGGGGSGGGGSGGGGSQAVVTQEPSVTVSPGGTVTLTCGSDTGAVTSGHYPYWFQQKPGQAPRTLIYDTSNKHSWTPARFSGSLLGGKAALTLSGAQPDDEADYYCLLSYSGEWVFGGGTKVTVL		binds	
